Biological target: Cyc15 (Streptomyces sp. NL15-2 K)
Assay: crystal structure; X-ray crystal structure of Cyc15 at 1.7 Å, molecular replacement with an AlphaFold 2.0 search model; asymmetric unit with two molecules (Chain A and Chain B)

- stoichiometry N: 2
Substance: Cyc15 (enzyme)

Reference: article PMC10946715
